# “Also recorded” adds a separate entry of the source.
# B1: SOCS3(22-225): Mouse SOCS3 residues 22-225 containing KIR, extended SH2 domain and SOCS box (protein)
# chain: LKTFSSKSEYQLVVNAVRKLQESGFYWSAVTGGEANLLLSAEPAGTFLIRDSSDQRHFFTLSVKTQSGTKNLRIQCEGGSFSLQSDPRSTQPVPRFDCVLKLVHHYMPPPGTPSFSLPPTEPSSEVPEQPPAQALPGSTPKRAYYIYSGGEKIPLVLSRPLSSNVATLQHLCRKTVNGHLDSYEKVTQLPGPIREFLDQYDAPL
# B2: SOCS3(22-185): Mouse SOCS3 residues 22-185 with KIR and extended SH2 domain, lacking the C-terminal SOCS box (protein)
# chain: LKTFSSKSEYQLVVNAVRKLQESGFYWSAVTGGEANLLLSAEPAGTFLIRDSSDQRHFFTLSVKTQSGTKNLRIQCEGGSFSLQSDPRSTQPVPRFDCVLKLVHHYMPPPGTPSFSLPPTEPSSEVPEQPPAQALPGSTPKRAYYIYSGGEKIPLVLSRPLSSN
# B3: SOCS3(22-185)(Δ129-163): 22-185 construct with Pro129-Arg163 replaced by an eight residue (Gly-Ser)x4 linker; SEQ ID NO:3 (protein, listed as Mus musculus)
# chain: LKTFSSKSEYQLVVNAVRKLQESGFYWSAVTGGEANLLLSAEPAGTFLIRDSSDQRHFFTLSVKTQSGTKNLRIQCEGGSFSLQSDPRSTQPVPRFDCVLKLVHHYMGSGSGSGSAYYIYSGGEKIPLVLSRPLSSN
# B4: ΔPEST SOCS3: Full-length SOCS3 lacking the PEST sequence (Δ129-163), Flag-tagged (protein)
# chain: LKTFSSKSEYQLVVNAVRKLQESGFYWSAVTGGEANLLLSAEPAGTFLIRDSSDQRHFFTLSVKTQSGTKNLRIQCEGGSFSLQSDPRSTQPVPRFDCVLKLVHHYMGSGSGSGSAYYIYSGGEKIPLVLSRPLSSN
# Assays:
# [1] = target: SOCS3 (Mus musculus, UniProt O35718); conditions: result in words; cited from earlier work
# [2] = Description: (§1) Pelleted bacterial cells were resuspended in PBS and then lysed by homogenisation. The lysate was centrifuged at 20,000 g and the pelleted inclusion bodies solubilised using 6M GdnHCl. The protein was then purified using Ni-NTA resin (Qiagen) by binding at pH 8.0, washing at pH 6.3 and eluting at pH 4.5, all in 6M GdnHCl. The eluted protein was diluted to 0.1 mg/mL and a final GdnHCl concentration of 4 M and then refolded by extensive dialysis against 25 mM sodium phosphate, 50 mM sodium chloride, 5 mM 2-mercaptoethanol at pH 6.7.
# All constructs contained the SH2 domain, as defined by sequence homology (Okazaki et al., 2002), but included differing lengths of sequence outside this region.
# The six mutants (A50D, G53R, L58E, A62E, A65E, G99D) were all cloned and expressed in E. coli as part of a 22-185 construct.
# [3] = system: 293T cells; assay: Pulse chase half-life experiments in 293T cells; type: cell-based; conditions: for effect of proteasome inhibitor MG132 on half-life: 10 μM MG-132, over eight hours; for labelled protein remaining: after 8 hr; for intracellular stability / turnover: pulse chase, result in words
# Text: FIG. 9. Removing the PEST motif improves the intracellular half-life of SOCS3 and affects its degradation mechanism. • (A) Duplicate pulse chase experiments in 293T cells performed after transfection of (upper panel) wild-type (1-225) or ΔPEST (Δ129-163) SOCS3 DNA and (lower panel) ΔNC-SOCS3 (22-185) or ΔNC-Δ129-163 (22-185 ΔPEST) SOCS3 DNA. The amount of labelled protein remaining is shown as a perceintage of initial levels and plotted as a semi-log graph. […] Duplicate experiments are shown in each panel • (B) Removing the PEST motif alters the intracellular degradation pathway of SOCS3. Pulse chase experiments were performed on 293T cells transfected with wild-type SOCS3 (black) or ΔPEST SOCS3 (grey) and incubated in the presence (hashed bars) and absence (solid bars) of MG-132, a proteasome inhibitor. Experiments were performed in duplicate according to the protocol in (A) but with the addition of 10 μM MG-132 and the protein levels monitored over eight hours.
# 293T cells (5×10^5 cells/well) were transfected with 1.5 μg of the appropriate SOCS3 expression construct as described above. 48 h after transfection cells were washed twice in PBS and incubated for 1 h in Met/Cys-free DME (Gibco-BRL). Cells were then incubated for 30 min in DME containing 0.15 mCi/ml [^35S]Met/Cys (Perkin-Elmer) followed by DME+10% Foetal calf serum (Sigma)+2 mM Cys+2 mM Met for various times, upon which cells were lysed in KALB lysis buffer (1 mM EDTA, 150 mM NaCl, 50 mM Tris-Cl, 1% Triton X-100, pH 7.5) and the amount of [^35S]-labelled SOCS3 was determined by immunoprecipitation using anti-Flag tag M2 beads (Sigma). Detection and quantification was carried out using a FujiFilm FLA-3000 phosphoimager and associated software.
# Intracellular levels of SOCS3 are strongly regulated by proteolysis. Two regions of the protein have been implicated previously in regulating proteolysis, Lys6 in the N-terminal domain and the C-terminal SOCS box (Chen et al., 2002; Kamura et al., 1998; Sasaki et al., 2003). As PEST motifs are known to be signals for protein degradation in vivo (Rogers et al., 1986), we measured the half-life of SOCS3 proteins that lacked the PEST motif, as well as constructs lacking the SOCS box and the N-terminal region. […] As the SOCS box and the N-terminal domains also affect SOCS3 turnover we further examined the effect of deleting these regions. The decrease in SOCS3 degradation upon removing the PEST motif from either the full-length protein (upper panel) or from SOCS322-185 (which lacks both the N-terminal domain and SOCS box, lower panel) was significant.
# As PEST motifs have been associated with proteasome-mediated degradation, we investigated whether proteasome inhibitors would have an effect on the half-life of SOCS3 in 293T cells. […] After 8 hr in the presence of MG132 approximately 65% of ΔPEST SOCS3 remained, compared with ca. 45% in its absence. […] Thus it appears that, in 293T cells, the proteasomal pathway is an important route for ΔPEST SOCS3 degradation but that wild-type SOCS3, which contains the PEST motif, is efficiently degraded via another mechanism.
# [4] = depending on the cell type; cited from earlier work
# [5] = target: tyrosine phosphorylated peptide from gp130 (Mus musculus, UniProt Q00560, Q756E); assay: Binding studies and isothermal titration calorimetry (ITC) with gp130 peptide; conditions: for ΔH: FIG. 4 titration, fit to single site binding isotherm
# Description: as §1
# [6] = system: LIF-induced Stat3 activity; assay: Stat3-responsive luciferase assay in 293T cells; type: cell-based; conditions: 100 or 300 ng cDNA, 10 ng/ml LIF overnight
# Text: FIG. 8. […] Backbone amide chemical shift differences between residues in wild-type SOCS3 and ΔPEST SOCS3, which has residues 129-163 replaced by […] (SEQ ID NO:10), are plotted against residue number; amide proton and nitrogen chemical shift differences were averaged according to Δδav, a weighted average of the ^15N and ^1HN chemical shifts as follows: Δδav={0.5[Δδ(^1HN)^2+(0.2Δδ(15N))^2]}^1/2 (Pellecchia et al., 1999). The position of the PEST sequence is marked by a double asterisk. • (B) SOCS3 PEST deletion mutants are able to inhibit STAT activation. 293T cells were transiently transfected with 100 or 300 ng cDNA expressing various Flag-tagged SOCS-3 proteins in the presence of the Stat3-responsive reporter gene. […] Upper panel: Luciferase activity from triplicate samples was determined and normalized against Renilla luciferase activity. Lower panel: Lysates were analysed by Western blot with anti-Flag antibody. […]
# Firefly and Renilla luciferase activities were quantified using substrate reagents from the Luciferase Assay Dual-Reporter kit (Promega, Madison Wis.) and an automated LUMIstar Galaxy plate reader (BMG Technologies, Offenburg, Germany). SOCS3 protein expression was analysed by Western blot with polyclonal rat anti-Flag antibody (Drs. D. Huang & L. O'Reilly, The Walter and Eliza Hall Institute of Medical Research, Melbourne, Australia) as described (Nicholson et al., 1999). […]
# Chain of SOCS3 (O35718 whole entry): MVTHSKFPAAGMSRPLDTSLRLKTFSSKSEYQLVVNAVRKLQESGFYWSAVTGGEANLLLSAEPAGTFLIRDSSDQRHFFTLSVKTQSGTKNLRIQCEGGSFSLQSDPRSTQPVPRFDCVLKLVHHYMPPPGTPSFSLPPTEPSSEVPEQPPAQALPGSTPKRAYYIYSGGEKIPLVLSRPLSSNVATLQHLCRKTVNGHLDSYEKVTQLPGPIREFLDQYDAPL
molecule,measurement,setting,value
STASTVEpYSTVVHSG [phosphotyrosine peptide from gp130],binding to mouse SOCS3,[1],bind with high affinity
"wild-type SOCS3: Wild-type (1-225) murine SOCS3, Flag-tagged in the cell assays; SEQ ID NO:1",solubility (in words),[2],too low for structure determination
same,effect of proteasome inhibitor MG132 on half-life,[3],did not affect the half-life; also recorded: no effect on the half-life
same,labelled protein remaining,[3]; MG132 state not specified (no effect on wild-type),25%
same,half-life,[4],under 5 minutes to over 8 hours
B1,solubility (in words),[2],too poorly soluble
same,solubility in NaCl/Pi,[2],< 1000 µg/mL
B2,solubility (in words),[2],highest solubility
same,soluble to,[2],≈ 0.5 mM
same,ΔH,[5],-6.2 kcal/mol
B3,ΔH,[5],-6.4 kcal/mol
same,binding to the gp130 peptide,[5]; result in words,binds to the gp130 peptide
same,intracellular stability / turnover,[3],improved its in vivo stability
B4,ability to inhibit LIF-induced Stat3 activity,[6],did not alter the ability of SOCS3 to inhibit LIF-induced Stat3 activity
same,effect of proteasome inhibitor MG132 on half-life,[3],dramatically increased the half-life; also recorded: significantly increased the half-life
same,labelled protein remaining,[3]; in the absence of MG132,ca. 45%
same,labelled protein remaining,[3]; in the presence of MG132 (10 μM),approximately 65%
same,intracellular stability / turnover,[3],improved its in vivo stability

# Reference: patent US7517959B2, “SOCS3 proteins” (Walter and Eliza Hall Institute of Medical Research, priority 2005, dated 2009)
